Assay results published in patent US20150329594A1 (University of California, published 2015).
Bridge positions count the residues as written; N and C are the ends. Square brackets hold non-standard residues; d marks the D form. Nal = 1-naphthylalanine or 2-naphthylalanine; Trp(1-Me) = Cn1cc(C[C@H](N)C(=O)O)c2ccccc21; Aal = not defined here; Sea = not defined here

B1: Peptide 3.1, Ac-ER-ICVWQDWGAHRCT-NH2 (peptide)
peptide: Ac-ERICVWQDWGAHRCT-NH2
modifications: disulfide 4-14
SMILES: CC[C@H](C)[C@H](NC(=O)[C@H](CCCNC(=N)N)NC(=O)[C@H](CCC(=O)O)NC(C)=O)C(=O)N[C@H]1CSSC[C@@H](C(=O)N[C@H](C(N)=O)[C@@H](C)O)NC(=O)[C@H](CCCNC(=N)N)NC(=O)[C@H](Cc2c[nH]cn2)NC(=O)[C@H](C)NC(=O)CNC(=O)[C@H](Cc2c[nH]c3ccccc23)NC(=O)[C@H](CC(=O)O)NC(=O)[C@H](CCC(N)=O)NC(=O)[C@H](Cc2c[nH]c3ccccc23)NC(=O)[C@H](C(C)C)NC1=O
B2: Peptide 4.5, Ac-ER-ICV{Nal}QDWG{Nal}HRCT-NH2 (peptide)
peptide: Ac-ERICV[Nal]QDWG[Nal]HRCT-NH2
modifications: disulfide 4-14; not fully specified; printed as Ac-ERICV{Nal}QDWG{Nal}HRCT-NH2
B3: Peptide 3.4, Ac-RS-ICVWQDWGAHRCT-NH2 (peptide)
peptide: Ac-RSICVWQDWGAHRCT-NH2
modifications: disulfide 4-14
B4: Peptide 4.6, Ac-NN-LCV{Nal}QDWG{Nal}HRCT-NH2 (peptide)
peptide: Ac-NNLCV[Nal]QDWG[Nal]HRCT-NH2
modifications: disulfide 4-14; not fully specified; printed as Ac-NNLCV{Nal}QDWG{Nal}HRCT-NH2
B5: Peptide 4.1, Ac-ER-ICVWQDWG{Nal}HRCT-NH2 (peptide)
peptide: Ac-ERICVWQDWG[Nal]HRCT-NH2
modifications: disulfide 4-14; not fully specified; printed as Ac-ER-ICVWQDWG{Nal}HRCT-NH2
B6: Peptide 2.5, Ac-ICVWQDWG{Sea}HRCT-NH2 (peptide)
peptide: Ac-ICVWQDWG[Sea]HRCT-NH2
modifications: disulfide 2-12; reading uncertain; also: printed as Ac-ICVWQDWG{Sea}HRCT-NH2
B7: Peptide 4.2, Ac-NN-LCVWQDWG{Nal}HRCT-NH2 (peptide)
peptide: Ac-NNLCVWQDWG[Nal]HRCT-NH2
modifications: disulfide 4-14; not fully specified; printed as Ac-NN-LCVWQDWG{Nal}HRCT-NH2
B8: Peptide 2.4, Ac-ICVWQDWG{Aal}HRCT-NH2 (peptide)
peptide: Ac-ICVWQDWG[Aal]HRCT-NH2
modifications: disulfide 2-12; reading uncertain; also: printed as Ac-ICVWQDWG{Aal}HRCT-NH2
B9: Peptide 4.3, Ac-NR-LCVWQDWG{Nal}HRCT-NH2 (peptide)
peptide: Ac-NRLCVWQDWG[Nal]HRCT-NH2
modifications: disulfide 4-14; not fully specified; printed as Ac-NR-LCVWQDWG{Nal}HRCT-NH2
B10: Peptide 3.3, Ac-NR-LCVWQDWGAHRCT-NH2 (peptide)
peptide: Ac-NRLCVWQDWGAHRCT-NH2
modifications: disulfide 4-14
SMILES: CC(=O)N[C@@H](CC(N)=O)C(=O)N[C@@H](CCCNC(=N)N)C(=O)N[C@@H](CC(C)C)C(=O)N[C@H]1CSSC[C@@H](C(=O)N[C@H](C(N)=O)[C@@H](C)O)NC(=O)[C@H](CCCNC(=N)N)NC(=O)[C@H](Cc2c[nH]cn2)NC(=O)[C@H](C)NC(=O)CNC(=O)[C@H](Cc2c[nH]c3ccccc23)NC(=O)[C@H](CC(=O)O)NC(=O)[C@H](CCC(N)=O)NC(=O)[C@H](Cc2c[nH]c3ccccc23)NC(=O)[C@H](C(C)C)NC1=O
B11: Peptide 2.2, Ac-ICVWQDWG{Nal}HRCT-NH2 (peptide)
peptide: Ac-ICVWQDWG[Nal]HRCT-NH2
modifications: disulfide 2-12; not fully specified; printed as Ac-ICVWQDWG{Nal}HRCT-NH2
B12: Peptide 4.7, Ac-NR-LCV{Nal}QDWG{Nal}HRCT-NH2 (peptide)
peptide: Ac-NRLCV[Nal]QDWG[Nal]HRCT-NH2
modifications: disulfide 4-14; not fully specified; printed as Ac-NRLCV{Nal}QDWG{Nal}HRCT-NH2
B13: Peptide 4.4, Ac-RS-ICVWQDWG{Nal}HRCT-NH2 (peptide)
peptide: Ac-RSICVWQDWG[Nal]HRCT-NH2
modifications: disulfide 4-14; not fully specified; printed as Ac-RS-ICVWQDWG{Nal}HRCT-NH2
B14: Peptide 3.2, Ac-NN-LCVWQDWGAHRCT-NH2 (peptide)
peptide: Ac-NNLCVWQDWGAHRCT-NH2
modifications: disulfide 4-14
SMILES: CC(=O)N[C@@H](CC(N)=O)C(=O)N[C@@H](CC(N)=O)C(=O)N[C@@H](CC(C)C)C(=O)N[C@H]1CSSC[C@@H](C(=O)N[C@H](C(N)=O)[C@@H](C)O)NC(=O)[C@H](CCCNC(=N)N)NC(=O)[C@H](Cc2c[nH]cn2)NC(=O)[C@H](C)NC(=O)CNC(=O)[C@H](Cc2c[nH]c3ccccc23)NC(=O)[C@H](CC(=O)O)NC(=O)[C@H](CCC(N)=O)NC(=O)[C@H](Cc2c[nH]c3ccccc23)NC(=O)[C@H](C(C)C)NC1=O
B15: Peptide 2.1, Ac-ICVmeWQDWG{Nal}HRCT-NH2 (peptide)
peptide: Ac-ICV[Trp(1-Me)]QDWG[Nal]HRCT-NH2
modifications: disulfide 2-12; not fully specified; printed as Ac-ICV{meW}QDWG{Nal}HRCT-NH2
B16: Peptide 4.8, Ac-RS-ICV{Nal}QDWG{Nal}HRCT-NH2 (peptide)
peptide: Ac-RSICV[Nal]QDWG[Nal]HRCT-NH2
modifications: disulfide 4-14; not fully specified; printed as Ac-RSICV{Nal}QDWG{Nal}HRCT-NH2
B17: Peptide V, Ac-WW-RCVWQDWGAHRCT-NH2 (peptide)
peptide: Ac-WWRCVWQDWGAHRCT-NH2
modifications: disulfide 4-14
SMILES: CC(=O)N[C@@H](Cc1c[nH]c2ccccc12)C(=O)N[C@@H](Cc1c[nH]c2ccccc12)C(=O)N[C@@H](CCCNC(=N)N)C(=O)N[C@H]1CSSC[C@@H](C(=O)N[C@H](C(N)=O)[C@@H](C)O)NC(=O)[C@H](CCCNC(=N)N)NC(=O)[C@H](Cc2c[nH]cn2)NC(=O)[C@H](C)NC(=O)CNC(=O)[C@H](Cc2c[nH]c3ccccc23)NC(=O)[C@H](CC(=O)O)NC(=O)[C@H](CCC(N)=O)NC(=O)[C@H](Cc2c[nH]c3ccccc23)NC(=O)[C@H](C(C)C)NC1=O
B18: Peptide II, Ac-me…-NH2 (peptide)
peptide: Ac-[Trp(1-Me)]CVWQDWGAHRCT-NH2
modifications: disulfide 2-12
B19: Peptide VIII, Ac-SS-RCVme…-NH2 (peptide)
peptide: Ac-SSRCV[Trp(1-Me)]QDWGAHRCT-NH2
modifications: disulfide 4-14
SMILES: CC(=O)N[C@@H](CO)C(=O)N[C@@H](CO)C(=O)N[C@@H](CCCNC(=N)N)C(=O)N[C@H]1CSSC[C@@H](C(=O)N[C@H](C(N)=O)[C@@H](C)O)NC(=O)[C@H](CCCNC(=N)N)NC(=O)[C@H](Cc2c[nH]cn2)NC(=O)[C@H](C)NC(=O)CNC(=O)[C@H](Cc2c[nH]c3ccccc23)NC(=O)[C@H](CC(=O)O)NC(=O)[C@H](CCC(N)=O)NC(=O)[C@H](Cc2cn(C)c3ccccc23)NC(=O)[C@H](C(C)C)NC1=O
B20: Peptide IV, Ac-SS-ICVWQDWGAHRCT-NH2 (peptide)
peptide: Ac-SSICVWQDWGAHRCT-NH2
modifications: disulfide 4-14
SMILES: CC[C@H](C)[C@H](NC(=O)[C@H](CO)NC(=O)[C@H](CO)NC(C)=O)C(=O)N[C@H]1CSSC[C@@H](C(=O)N[C@H](C(N)=O)[C@@H](C)O)NC(=O)[C@H](CCCNC(=N)N)NC(=O)[C@H](Cc2c[nH]cn2)NC(=O)[C@H](C)NC(=O)CNC(=O)[C@H](Cc2c[nH]c3ccccc23)NC(=O)[C@H](CC(=O)O)NC(=O)[C@H](CCC(N)=O)NC(=O)[C@H](Cc2c[nH]c3ccccc23)NC(=O)[C@H](C(C)C)NC1=O
B21: Peptide VII, Ac-RS-RCVme…-NH2 (peptide)
peptide: Ac-RSRCV[Trp(1-Me)]QDWGAHRCT-NH2
modifications: disulfide 4-14
SMILES: CC(=O)N[C@@H](CCCNC(=N)N)C(=O)N[C@@H](CO)C(=O)N[C@@H](CCCNC(=N)N)C(=O)N[C@H]1CSSC[C@@H](C(=O)N[C@H](C(N)=O)[C@@H](C)O)NC(=O)[C@H](CCCNC(=N)N)NC(=O)[C@H](Cc2c[nH]cn2)NC(=O)[C@H](C)NC(=O)CNC(=O)[C@H](Cc2c[nH]c3ccccc23)NC(=O)[C@H](CC(=O)O)NC(=O)[C@H](CCC(N)=O)NC(=O)[C@H](Cc2cn(C)c3ccccc23)NC(=O)[C@H](C(C)C)NC1=O

molecular target: T1, human complement protein C3 (human, UniProt P01024 23-1663); experiment: cell-based or functional assay
T1 sequence (P01024 23-1663 limits assumed): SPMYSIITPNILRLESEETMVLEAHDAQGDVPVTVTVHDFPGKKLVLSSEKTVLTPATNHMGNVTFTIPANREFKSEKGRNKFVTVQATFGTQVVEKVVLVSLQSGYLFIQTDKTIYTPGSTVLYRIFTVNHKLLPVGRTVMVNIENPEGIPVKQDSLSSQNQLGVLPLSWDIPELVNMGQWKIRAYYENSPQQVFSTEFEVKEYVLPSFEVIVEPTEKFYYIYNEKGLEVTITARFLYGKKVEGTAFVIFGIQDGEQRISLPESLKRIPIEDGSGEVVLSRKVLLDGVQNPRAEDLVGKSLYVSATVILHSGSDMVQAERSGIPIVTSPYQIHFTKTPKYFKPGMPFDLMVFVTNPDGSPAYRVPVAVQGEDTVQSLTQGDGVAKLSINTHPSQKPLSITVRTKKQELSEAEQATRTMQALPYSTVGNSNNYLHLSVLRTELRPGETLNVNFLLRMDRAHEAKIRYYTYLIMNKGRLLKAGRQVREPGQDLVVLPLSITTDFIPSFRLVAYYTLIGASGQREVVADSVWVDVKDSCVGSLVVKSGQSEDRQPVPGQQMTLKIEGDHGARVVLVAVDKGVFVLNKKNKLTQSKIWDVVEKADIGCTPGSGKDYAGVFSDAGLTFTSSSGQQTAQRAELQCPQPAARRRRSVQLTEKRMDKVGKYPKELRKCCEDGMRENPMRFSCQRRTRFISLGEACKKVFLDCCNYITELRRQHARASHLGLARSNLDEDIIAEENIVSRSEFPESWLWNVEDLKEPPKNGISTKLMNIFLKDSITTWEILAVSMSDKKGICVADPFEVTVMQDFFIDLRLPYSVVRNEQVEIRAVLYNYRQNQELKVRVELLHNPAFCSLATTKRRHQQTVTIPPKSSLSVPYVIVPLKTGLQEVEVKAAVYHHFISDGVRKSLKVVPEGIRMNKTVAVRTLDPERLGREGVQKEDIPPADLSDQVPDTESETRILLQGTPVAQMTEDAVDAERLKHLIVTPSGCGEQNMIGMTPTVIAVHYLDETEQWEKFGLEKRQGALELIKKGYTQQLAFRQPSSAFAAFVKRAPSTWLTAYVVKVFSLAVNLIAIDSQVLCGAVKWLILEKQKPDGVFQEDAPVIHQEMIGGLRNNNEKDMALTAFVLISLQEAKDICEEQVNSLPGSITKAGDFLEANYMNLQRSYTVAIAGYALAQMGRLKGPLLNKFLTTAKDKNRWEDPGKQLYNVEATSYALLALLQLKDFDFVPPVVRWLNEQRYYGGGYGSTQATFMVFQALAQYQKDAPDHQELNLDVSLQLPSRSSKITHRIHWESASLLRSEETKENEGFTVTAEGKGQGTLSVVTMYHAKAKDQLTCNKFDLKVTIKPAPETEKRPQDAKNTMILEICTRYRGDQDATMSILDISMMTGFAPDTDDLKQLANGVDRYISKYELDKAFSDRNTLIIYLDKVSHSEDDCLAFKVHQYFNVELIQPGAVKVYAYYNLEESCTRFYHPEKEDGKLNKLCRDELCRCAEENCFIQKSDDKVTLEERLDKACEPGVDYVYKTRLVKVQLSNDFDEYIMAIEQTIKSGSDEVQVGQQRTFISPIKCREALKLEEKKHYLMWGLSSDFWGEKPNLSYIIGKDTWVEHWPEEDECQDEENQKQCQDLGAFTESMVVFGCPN

| Binder | C3b ELISA IC50 | C5b-9 ELISA IC50 | Lysis IC50 |
| --- | --- | --- | --- |
| B1 | 900 nM | 500 nM | 900 nM |
| B2 | 3800 nM | 2400 nM | 3000 nM |
| B3 | 700 nM | 600 nM | 300 nM |
| B4 | 3900 nM | 2300 nM | 2200 nM |
| B5 | 3000 nM | 1800 nM | 2300 nM |
| B6 | 600 nM | 700 nM | 500 nM |
| B7 | 2900 nM | 1900 nM | 2100 nM |
| B8 | 900 nM | 800 nM | 700 nM |
| B9 | 2000 nM | 1200 nM | 1200 nM |
| B10 | 600 nM | 500 nM | 300 nM |
| B11 | 2400 nM | 2000 nM | 1400 nM |
| B12 | 2300 nM | 1400 nM | 1300 nM |
| B13 | 3100 nM | 2000 nM | 1800 nM |
| B14 | 600 nM | 500 nM | 300 nM |
| B15 | 1400 nM | 900 nM | 900 nM |
| B16 | 4100 nM | 2400 nM | 2800 nM |

molecular target: T1, human complement protein C3; experiment: cell-based or functional assay; remark: another data set of the same source

| Binder | IC50 (assay not named in Table 7; preliminary C3b ELISA by paragraph 235) |
| --- | --- |
| B17 | 460000 nM |
| B18 | 240000 nM |
| B19 | 420000 nM |
| B20 | 330000 nM |
| B21 | 470000 nM |
